Legend:
[1] = molecular target: T1, MtLAP (leucine aminopeptidase of M. tuberculosis, Rv2213) (Mycobacterium tuberculosis, UniProt P9WHT3); assay: biochemical
T1 construct: gene pepA

[2] = tested on: CSCC[C@H](N)C(=O)Nc1ccc2c(C)cc(=O)oc2c1; assay: purified protein; settings: divalent metal (Ni2+, […] NiSO4 in the assay)
[3] = tested on: Cc1cc(=O)oc2cc(NC(=O)[C@@H](N)CC(C)C)ccc12; assay: purified protein; settings: divalent metal (Ni2+, […] NiSO4 in the assay)
[4] = tested on: Cc1cc(=O)oc2cc(NC(=O)[C@@H]3CCCN3)ccc12; assay: purified protein; settings: divalent metal (Ni2+, […] NiSO4 in the assay)
AUC + SEC = molecular target: the molecule itself; assay: AUC + SEC

Work on `CC(C)C[C@H](NC(=O)[C@@H](O)[C@H](N)Cc1ccccc1)C(=O)O` [bestatin] yielded an IC50 [1] of 53.8 nM.

Molecule “MtLAP (leucine aminopeptidase of M. tuberculosis, Rv2213) (Mycobacterium tuberculosis H37Rv)” has a Km [2] of 61.8 ± 4.4 µM, a Km [3] of 69.4 ± 3.6 µM and a Km [4] of 344.8 ± 49.2 µM.

B1: leucine aminopeptidase of M. tuberculosis (MtLAP) (enzyme)
chain: MTTEPGYLSPSVAVATSMPKRGVGAAVLIVPVVSTGEEDRPGAVVASAEPFLRADTVAEIEAGLRALDATGASDQVHRLAVPSLPVGSVLTVGLGKPRREWPADTIRCAAGVAARALNSSEAVITTLAELPGDGICSATVEGLILGSYRFSAFRSDKTAPKDAGLRKITVLCCAKDAKKRALHGAAVATAVATARDLVNTPPSHLFPAEFAKRAKTLSESVGLDVEVIDEKALKKAGYGGVIGVGQGSSRPPRLVRLIHRGSRLAKNPQKAKKVALVGKGITFDTGGISIKPAASMHHMTSDMGGAAAVIATVTLAARLRLPIDVIATVPMAENMPSATAQRPGDVLTQYGGTTVEVLNTDAEGRLILADAIVRACEDKPDYLIETSTLTGAQTVALGTRIPGVMGSDEFRDRVAAISQRVGENGWPMPLPDDLKDDLKSTVADLANVSGQRFAGMLVAGVFLREFVAESVDWAHIDVAGPAYNTGSAWGYTPKGATGVPTRTMFAVLEDIAKNG
notes: also called M. tuberculosis LAP; Rv2213
With B1 the “stoichiometry N” value (AUC + SEC) was 6.

— article PMC5366330, “The Activity of a Hexameric M17 Metallo-Aminopeptidase Is Associated With Survival of Mycobacterium tuberculosis” (Frontiers in Microbiology, 2017)
